The results in this text go back to PMC5678581 (BMC Biology, 2017).

Usually Kd stands for the free concentration of one partner at which half of the binding sites on the other are occupied at equilibrium, for simple one-to-one binding. Read a high Kd as weaker binding. By stoichiometry N is commonly meant a count of units in the complex or per binding partner.

Data set [1] relates to His-TRIM25 (Homo sapiens). Nature of the data set: EMSA. The settings on record: 3 mM Mg2+, 0.5 mM ATP; EMSA: 4.8 mM Tris pH 8, 144 mM NaCl, 0.96 mM DTT, 3 mM MgCl2, 0.5 mM ATP, 37.5 mM creatine phosphate, 16 uL, ~0.1 pmol RNA, 4 C 1 h; pull-down conditions not ….
Data set [2] deals with the molecule itself. Nature of the data set: SEC-MALS; approximately 0.75 mg/mL on Superdex200 Increase 10/300 GL, 1.0 mL/min, 10 mM Tris (pH 8.0), 300 mM NaCl, 0.5 mM TCEP; self-association (tetramer).

Molecule pre-let-7a-1 displayed an equilibrium dissociation constant (Kd) in data set [1] of 800 nM.

B1: recombinant His-tagged TRIM25ΔRBD (lacking residues 470–508) (natural protein, human, UniProt Q14258 1-630, looked up)
chain: MAELCPLAEELSCSICLEPFKEPVTTPCGHNFCGSCLNETWAVQGSPYLCPQCRAVYQARPQLHKNTVLCNVVEQFLQADLAREPPADVWTPPARASAPSPNAQVACDHCLKEAAVKTCLVCMASFCQEHLQPHFDSPAFQDHPLQPPVRDLLRRKCSQHNRLREFFCPEHSECICHICLVEHKTCSPASLSQASADLEATLRHKLTVMYSQINGASRALDDVRNRQQDVRMTANRKVEQLQQEYTEMKALLDASETTSTRKIKEEEKRVNSKFDTIYQILLKKKSEIQTLKEEIEQSLTKRDEFEFLEKASKLRGISTKPVYIPEVELNHKLIKGIHQSTIDLKNELKQCIGRLQEPTPSSGDPGEHDPASTHKSTRPVKKVSKEEKKSKKPPPVPALPSKLPTFGAPEQLVDLKQAGLEAAAKATSSHPNSTSLKAKVLETFLAKSRPELLEYYIKVILDYNTAHNKKGIHYWEVELQKNNFCGVGICYGSMNRQGPESRLGRNSASWCVEWFNTKISAWHNNVEKTLPSTKATRVGVLLNCDHGFVIFFAVADKVHLMYKFRVDFTEALYPAFWVFSAGATLSICSPK
Turning to B1, the “stoichiometry N” value in data set [2] is 4.
